Measured values from the supplement of paper PMC12764529.
± gives the half width of the 95% confidence interval.

What was measured:
[1] = folding stability dG unfold (combined trypsin and chymotrypsin); higher = more stable
Method in brief: (§1)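 Unfolding free energy was derived, per protease or combined, by relating Bayesian-fitted K50 values from sequencing counts to a sequence-predicted unfolded-state K50 and a shared folded-state K50. The underlying digests exposed cysteine-free mini-proteins under 80 residues, in a PA-tagged cDNA display construct, to trypsin and chymotrypsin at 11 threefold-diluted concentrations and to a no-protease condition. A filter kept only designs with AlphaFold2 dimer inter-PAE above 15.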

[2] = folding stability dG unfold from trypsin proteolysis; higher = more stable
Method in brief: as §1

[3] = folding stability dG unfold from chymotrypsin proteolysis; higher = more stable
Method in brief: as §1

| Sequence | folding stability dG unfold [1] [kcal/mol] | folding stability dG unfold [2] [kcal/mol] | folding stability dG unfold [3] [kcal/mol] |
| --- | --- | --- | --- |
| SAGGSAGGSAGGKKVKVIKVSVTYDPKTKKLTIKVEKTGKTYTIPLKEIELVNGYLKIKSAGGSAGGSAGGS [r10_942_TrROS_Hall] | 2.21 ± 0.34 | 1.78 ± 0.11 | 2.45 ± 0.11 |
| SAGGSAGGSAGGKKVKVLTLTIELEVKDSNGKKYKVKATVTLIYDEKTKKLYLNISIEPSAGGSAGGSAGGS [r10_795_TrROS_Hall] | 4.85 ± 0.31 | 3.95 ± 0.39 | 5.05 ± 0.19 |
| SAGGSAGGSAGGKKVTITITIKVKEGEEITINGKKITVKPGETITITITITVPPKKKKKSAGGSAGGSAGGS [r10_949_TrROS_Hall] | 2.19 ± 0.41 | 1.57 ± 0.13 | 2.38 ± 0.31 |
| SAGGSAGGSAGGKKVYKVPSLEEALELAKKNKGKTVEIEVDGKKYKFNKNGKIVEIEPVKSAGGSAGGSAGG [r7_532_TrROS_Hall] | 2.14 ± 0.12 | 1.36 ± 0.084 | 2.38 ± 0.075 |
| SAGGSAGGSAGGKLILKVKVEVVSVKVEPLPGVPGEVKVEVEVKVEVELIEVSEEELKSSAGGSAGGSAGGS [r10_654_TrROS_Hall] | 2.19 ± 0.18 | 1.88 ± 0.26 | 2.34 ± 0.098 |
| SAGGSAGGSAGGKLIVLPVTSDEVFDFGDGPIPVPAGSIVVLEISPDGAKALVFSPEDLSAGGSAGGSAGGS [r10_353_TrMRF] | 1 ± 0.087 | 1.12 ± 0.021 | 0.886 ± 0.065 |
| SAGGSAGGSAGGKMKPVTIYIKNKDGSTAKLKVINGKVEITFPNGEKKTISAKDLKIYKSAGGSAGGSAGGS [r10_1176_TrROS_Hall] | 1.22 ± 0.17 | 0.631 ± 0.086 | 1.49 ± 0.13 |
| SAGGSAGGSAGGKMLLIKITTKDGREFTLEISEEEAKKLAEELKKKFPNQKIEVEIVPLKSAGGSAGGSAGG [r7_349_TrROS_Hall] | 3.21 ± 0.14 | 3.21 ± 0.18 | 3.16 ± 0.073 |
| SAGGSAGGSAGGKMRLYRFNLKTNKIEEVEAEPGEVIKITFPGKEIVLVVKDGKIELIPSAGGSAGGSAGGS [r10_817_TrROS_Hall] | 0.884 ± 0.21 | 0.464 ± 0.13 | 1.2 ± 0.22 |
| SAGGSAGGSAGGKMYLIKVKVDGEEKLIKVKSLEEAKKLLEEKGYKIESVEIFEVEEEEESAGGSAGGSAGG [r7_726_TrROS_Hall] | 4.09 ± 0.073 | 4.14 ± 0.23 | 4.07 ± 0.059 |
| SAGGSAGGSAGGKNKYYVRVKIKNPNGRTRKINFPFDDPDQIKEQAQKEGWKIDEVEPVSAGGSAGGSAGGS [r10_882_TrROS] | -0.121 ± 0.18 | -0.319 ± 0.25 | -0.064 ± 0.29 |
| SAGGSAGGSAGGKPGEKKRYRFPAPKFELVSKVKVRVKVLNEDTNELYEKEVEVFVLKLTSAGGSAGGSAGG [r7_64_TrROS_Hall] | 2.14 ± 0.21 | 1.12 ± 0.045 | 2.77 ± 0.16 |
| SAGGSAGGSAGGKPKLTLTLTLKRTVKNKNGKTTEKTLTLTLTFDSKEEAENALKELGFSAGGSAGGSAGGS [r10_1062_TrROS_Hall] | 2.67 ± 0.099 | 2.18 ± 0.033 | 2.92 ± 0.042 |
| SAGGSAGGSAGGKPLYLRITVKNKDGSEREIVVPLDTTIDDILAALPPNVTEVKIEVFPVSAGGSAGGSAGG [r7_288_TrROS_Hall] | 3.52 ± 0.13 | 3.36 ± 0.11 | 3.52 ± 0.13 |
| SAGGSAGGSAGGKPNEVRVANIPIYRRLENGGWELIRPLPIVVPVDASVDFVLDAFKKYSAGGSAGGSAGGS [r10_470_TrMRF] | 0.658 ± 0.048 | 0.392 ± 0.041 | 0.815 ± 0.076 |
| SAGGSAGGSAGGKPTITVTYDKENNTVTITFPDGSKIEITVPENATEEEVKKLVEELAKSAGGSAGGSAGGS [r10_33_TrROS_Hall] | 2.97 ± 0.22 | 2.62 ± 0.18 | 3.13 ± 0.11 |
| SAGGSAGGSAGGKTIRFKAKSPEEIAEKIKKGEEILTPDGKPVKITKVEPLPDGSVLITGSAGGSAGGSAGG [r11_48_TrMRF] | 0.46 ± 0.081 | 0.0865 ± 0.17 | 0.588 ± 0.18 |
| SAGGSAGGSAGGKTLTLEIEINGKLYKIEFSGDSIKITEIKVKPKPKKKEFFSEEELKKKSAGGSAGGSAGG [r7_748_TrROS_Hall] | 1.87 ± 0.31 | 0.563 ± 0.089 | 2.55 ± 0.13 |
| SAGGSAGGSAGGKTYKITVSSGDTYLTISIELPDGLVLTYKITPNSIEVEIKPLKDFNESAGGSAGGSAGGS [r10_1169_TrMRF] | 5.51 ± 0.43 | 3.42 ± 0.19 | 5.3 ± 0.2 |
| SAGGSAGGSAGGKTYRVKVRIYNPETGEVLEIEVEVETDTEEEAKRAAENLARELLKKSSAGGSAGGSAGGS [r10_863_TrROS_Hall] | 3.47 ± 0.12 | 2.69 ± 0.045 | 3.7 ± 0.058 |
| SAGGSAGGSAGGKTYTADEIKKIKKINGKWYVEIDGKTYEIPAKDIKIKKGDKIKIYPVSAGGSAGGSAGGS [r10_665_TrROS_Hall] | 1.57 ± 0.16 | 1.45 ± 0.059 | 1.59 ± 0.091 |

| Sequence | folding stability dG unfold [1] [kcal/mol] | folding stability dG unfold [2] [kcal/mol] | folding stability dG unfold [3] [kcal/mol] |
| --- | --- | --- | --- |
| SAGGSAGGSAGGKVEIYENPSTPYLVVVVYNPETGEKTVVLFKPDNPELAEKVAKELASSAGGSAGGSAGGS [r10_1117_TrMRF] | 1.38 ± 0.11 | 0.711 ± 0.077 | 1.81 ± 0.16 |
| SAGGSAGGSAGGKVITVELPDDVTVTFFIPEDPDIVPVEVTPPDGSTLTLPAKDIRELLGSAGGSAGGSAGG [r7_769_TrMRF] | 0.364 ± 0.1 | 0.159 ± 0.049 | 0.49 ± 0.12 |
| SAGGSAGGSAGGKVKIVSVSYDPETGKLTVEVEIPNPKKLLTVTTDNPNIPAEEIAKKLASAGGSAGGSAGG [r7_833_TrMRF] | 0.362 ± 0.15 | 0.453 ± 0.091 | 0.058 ± 0.056 |
| SAGGSAGGSAGGKVTVTPDGRLVIEKPKVTVEPVEVEEVEVELELKLSPEELEELLKKLSAGGSAGGSAGGS [r10_1096_TrROS_Hall] | 0.554 ± 0.19 | 0.51 ± 0.17 | 0.745 ± 0.044 |
| SAGGSAGGSAGGKVVKFTRPDGKPVDAKKILSYDPDKPKLYVLVEDEGPVELREVDADKDSAGGSAGGSAGG [r7_236_TrMRF] | 0.161 ± 0.23 | -0.245 ± 0.22 | 0.379 ± 0.32 |
| SAGGSAGGSAGGKVVKKVKVLTKTPKGGYKVIEVDFTDPSAVVEEAKKAGLEVLKVEEVSAGGSAGGSAGGS [r10_882_TrMRF] | 0.728 ± 0.098 | -0.045 ± 0.079 | 1.05 ± 0.094 |
| SAGGSAGGSAGGLAPAPDGSPVAVLLDDGRVVVFDPETAELYVAFVTPDSVRVVPLPLDLSAGGSAGGSAGG [r7_527_TrMRF] | 0.332 ± 0.053 | -0.565 ± 0.071 | 0.656 ± 0.038 |
| SAGGSAGGSAGGLEEIRENGEALVFYPDGRVYRVDLKTGKITPPPGFKPENIVRVVFVKKSAGGSAGGSAGG [r7_566_TrMRF] | 0.301 ± 0.076 | 0.493 ± 0.1 | 0.0292 ± 0.14 |
| SAGGSAGGSAGGLEELKKGFKKPVFVAKIEKEVRLLPNGDLIVRYKIEGPDLELELVFSSAGGSAGGSAGGS [r10_160_TrMRF] | 3.28 ± 0.12 | 2.6 ± 0.12 | 3.56 ± 0.14 |
| SAGGSAGGSAGGLEIEFWFFFPDEGYMIEVEWERDPDGPIEPTKITEIHPMPDGQPNPGFSAGGSAGGSAGG [r11_750_TrROS] | 1.94 ± 0.087 | 1.81 ± 0.059 | 2 ± 0.04 |
| SAGGSAGGSAGGLGPDTPYATLSVTLTFTVRLKVRDPVTGKEYEIEYDVTLTFTFTVPASAGGSAGGSAGGS [r10_1116_TrMRF] | 5.58 ± 0.4 | 5.07 ± 0.54 | 5.84 ± 0.31 |
| SAGGSAGGSAGGLLKLKLKLKYEFTFKDENGNTYKVEKELTLVLELPPINETGKKNLVLSAGGSAGGSAGGS [r10_168_TrMRF] | 3.12 ± 0.13 | 2.07 ± 0.036 | 3.66 ± 0.063 |
| SAGGSAGGSAGGLPDREILEVRVLNPEREETGLRVRVEVVLPDGPVTIELPAEEVKELASAGGSAGGSAGGS [r10_771_TrMRF] | 0.726 ± 0.071 | -0.0431 ± 0.068 | 1.03 ± 0.024 |
| SAGGSAGGSAGGLPEDIELEVEPLEITLEDGSRVRILIARAPDPEIAAIDIEVFPPDDPKSAGGSAGGSAGG [r11_338_TrMRF] | 0.559 ± 0.13 | 0.417 ± 0.11 | 0.51 ± 0.071 |
| SAGGSAGGSAGGLPPDVRLRVRITRPDGTVLEFDAPADVEIFFPDVPPEWRIEVDAEDVSAGGSAGGSAGGS [r10_774_TrMRF] | 2.09 ± 0.16 | 0.732 ± 0.061 | 2.49 ± 0.057 |
| SAGGSAGGSAGGLPPGAKVKVEIEISYDDPFSGPTNEYNSFPVELNFEPPEPIPTDPRLNSAGGSAGGSAGG [r7_522_TrMRF] | < -1 | -0.683 ± 0.16 | -1.38 ± 0.55 |
| SAGGSAGGSAGGLSLKVKNKKTGKWYDIESIEVKKDPSSGKPVIKIKTSGPKEVEKELVSAGGSAGGSAGGS [r10_663_TrMRF] | -0.34 ± 0.4 | -0.894 ± 0.34 | -0.178 ± 0.22 |
| SAGGSAGGSAGGLVAKVYRDGKEAVFYFDSPEEMVESIRPLFPDGKEVKVEVTTPEELFSAGGSAGGSAGGS [r10_1167_TrMRF] | 0.0392 ± 0.24 | -0.677 ± 0.16 | 0.22 ± 0.27 |
| SAGGSAGGSAGGLVEQAVRAIREAKKAGLKEVVIYLSEEQKEAVKEAAEKEGLKVKIVPESAGGSAGGSAGG [r11_371_TrROS_Hall] | 0.589 ± 0.086 | 0.244 ± 0.048 | 0.814 ± 0.021 |
| SAGGSAGGSAGGLVLRGPNDSLLFVLYNPDTGLAVFYNPATNQLLVVNLPLPKPKPSELLSAGGSAGGSAGG [r7_383_TrMRF] | 2.68 ± 0.15 | 2.38 ± 0.089 | 2.81 ± 0.049 |
